# From patent US20240287172A1 (SCIRHOM, published 2024)
# T1: hiR2-FL-L589P-T7 (human, UniProt Q6PJF5 1-856)
# T1 sequence: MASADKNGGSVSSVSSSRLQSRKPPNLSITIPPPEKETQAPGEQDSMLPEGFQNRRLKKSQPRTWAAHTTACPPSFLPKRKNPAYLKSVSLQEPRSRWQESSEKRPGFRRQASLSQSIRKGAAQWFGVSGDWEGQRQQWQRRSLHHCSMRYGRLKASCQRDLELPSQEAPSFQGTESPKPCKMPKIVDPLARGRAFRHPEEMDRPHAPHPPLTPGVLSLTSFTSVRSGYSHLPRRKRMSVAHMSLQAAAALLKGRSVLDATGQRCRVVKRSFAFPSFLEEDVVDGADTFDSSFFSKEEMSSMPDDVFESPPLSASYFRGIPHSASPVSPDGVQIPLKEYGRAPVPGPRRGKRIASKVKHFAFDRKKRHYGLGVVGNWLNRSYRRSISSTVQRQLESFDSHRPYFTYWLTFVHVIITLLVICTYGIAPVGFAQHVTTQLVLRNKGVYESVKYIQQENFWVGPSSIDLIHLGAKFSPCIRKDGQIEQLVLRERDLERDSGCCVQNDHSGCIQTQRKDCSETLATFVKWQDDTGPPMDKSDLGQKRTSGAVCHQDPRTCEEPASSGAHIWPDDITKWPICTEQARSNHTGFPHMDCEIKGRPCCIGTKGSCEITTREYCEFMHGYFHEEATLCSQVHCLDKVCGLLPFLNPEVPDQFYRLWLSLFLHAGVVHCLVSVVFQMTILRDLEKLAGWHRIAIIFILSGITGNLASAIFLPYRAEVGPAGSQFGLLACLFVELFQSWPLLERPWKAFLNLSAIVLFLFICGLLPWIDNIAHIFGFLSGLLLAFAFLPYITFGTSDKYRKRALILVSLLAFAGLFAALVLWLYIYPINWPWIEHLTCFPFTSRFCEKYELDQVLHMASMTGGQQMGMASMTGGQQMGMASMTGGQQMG
# B1: antibody 50 (antibody, V domains shown)
# VH: QVQLQQSGAELVRPGASVKVSCKASGYAFSNYLIEWVKQRPGQGLEWIGVINPGSGFTKYNEKFKGKATLTADKSSSTAYMQLSSLTSEDSAVYFCARGLYRAMDYWGQGTSVTVSS
# VL: DIQMTQSPASQSASLGESVTITCLASQTIGTWLAWYQQKPGKSPQLLIYAAASLADGVPSRFSGGGSGTKFSFKISSLQAEDFVNYYCQQIYSTPYTFGGGTKLEIK
# notes: mouse IgG, kappa light chain; also called clone #50; purified antibody 50
# Biological target: T1, hiR2-FL-L589P-T7
# Assay: FACS on MEF-DKO cells
binder,measurement,value
B1,binding result,no binding (tested: 3 µg/ml)
